# Assay results from article doi:10.1101/2021.12.31.474618.
# Biological target: OsCBMIP-His (OsRMC-His), secreted from rice suspension-cultured cells (rice)
# Experiment: BLI
substance,measurement,value
MoCel6A as used for binding kinetics (BLItz) (enzyme),Kd,21.9 nM
same,koff,0.000845 s⁻¹
same,kon,38900 M⁻¹ s⁻¹
